Target: human GITR on cells (activated human T cells; 3A9-hGITR cells) (human) (UniProt Q9Y5U5)
Assay: flow cytometry on anti-CD3/CD28-activated human CD4 T cells, GMFI (PE); fitted value of a flat control curve, unit from the axis

Chain of human GITR on cells (activated human T cells; 3A9-hGITR cells) (human) (Q9Y5U5 26-241): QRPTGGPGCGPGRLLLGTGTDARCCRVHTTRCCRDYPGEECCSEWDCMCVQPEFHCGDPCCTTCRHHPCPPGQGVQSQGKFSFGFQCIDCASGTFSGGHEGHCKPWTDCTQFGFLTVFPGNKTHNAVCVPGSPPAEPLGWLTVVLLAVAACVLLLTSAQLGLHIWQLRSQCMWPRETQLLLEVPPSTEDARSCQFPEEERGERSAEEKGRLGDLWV

EC50: 132 nM
Substance: hIgG1 Isotype Control (antibody)

Source: patent publication US20200268901A1
